The target of assay [1] is T1, hPD-L2.ECD.His (SinoBiological-10292-H08H) (human, UniProt Q9BQ51 20-220).
T1 construct: extracellular domain; His tag
T1 sequence (looked up): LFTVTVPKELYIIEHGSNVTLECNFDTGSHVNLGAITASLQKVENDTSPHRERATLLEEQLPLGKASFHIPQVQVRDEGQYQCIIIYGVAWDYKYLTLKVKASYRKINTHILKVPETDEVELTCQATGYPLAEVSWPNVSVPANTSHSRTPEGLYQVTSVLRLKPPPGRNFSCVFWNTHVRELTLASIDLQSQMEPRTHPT
In words: ELISA on coated protein (1 ug/mL). How it is done:
(§1) The plate was incubated at ambient temperature for 1 hour. The binding of the antibodies to the immobilized proteins was detected by HRP-labeled goat anti-human IgG antibody. The color was developed by dispensing 100 μL of TMB substrate, and then stopped by 100 μL of 2N HCl. The absorbance was read at 450 nm and 540 nm using a microplate spectrophotometer, respectively.
In general terms: ELISA stands for enzyme-linked immunosorbent assay.

Assay [2] deals with T2, hCD80.ECD.His (SinoBiological-10698-H08H) (human, UniProt P33681 35-242).
T2 construct: extracellular domain; His tag
T2 sequence (looked up): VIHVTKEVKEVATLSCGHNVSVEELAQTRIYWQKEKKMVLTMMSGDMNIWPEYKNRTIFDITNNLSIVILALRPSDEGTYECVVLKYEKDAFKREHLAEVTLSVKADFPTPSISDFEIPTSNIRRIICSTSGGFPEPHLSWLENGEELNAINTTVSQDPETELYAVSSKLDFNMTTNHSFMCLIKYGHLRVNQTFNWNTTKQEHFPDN
The assay is described as follows: ELISA on coated protein (1 ug/mL). How it is done:
as §1

The target of assay [3] is T3, hCD86.ECD.His (SinoBiological-10699-H08H) (human, UniProt P42081 24-247).
T3 construct: extracellular domain; His tag
T3 sequence (looked up): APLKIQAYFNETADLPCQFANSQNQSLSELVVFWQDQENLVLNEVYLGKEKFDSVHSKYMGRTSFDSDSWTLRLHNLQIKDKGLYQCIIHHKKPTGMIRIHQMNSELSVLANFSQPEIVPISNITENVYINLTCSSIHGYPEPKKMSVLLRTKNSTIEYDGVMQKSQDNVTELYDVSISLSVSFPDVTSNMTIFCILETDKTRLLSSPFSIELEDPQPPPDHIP
In words: ELISA on coated protein (1 ug/mL). The protocol: as §1

In assay [4] the target is T4, mouse PD-L1 on 293F cells (W315-293F.mPro1.C1) (mouse, UniProt Q9EP73 19-290).
T4 construct: whole, on cells; also called cell surface mouse PD-L1; Mouse PD-L1-expressing 293F cell
In words: FACS on mouse PD-L1 293F cells. How it is done: (§2) After washing with 1×PBS/1% BSA, the secondary antibody PE-labeled goat anti-human IgG was applied and incubated with cells at 4° C. for 1 hour. […] Human IgG1 and IgG4 isotype antibodies were used as negative control. The cells were then washed and resuspended in 1×PBS/1% BSA. MFI of the cells was measured by a flow cytometer (BD) and analyzed by FlowJo (version 7.6.1).

For assay [5], the target named is T5, human PD-L1 on CHO-K1 cells (W315-CHO-K1.hPro1.C11) (human, UniProt Q9NZQ7 19-290).
T5 construct: whole, on cells; also called cell surface human PD-L1; Human PD-L1-expressing CHO-K1 cell
The assay is described as follows: FACS on human PD-L1 CHO-K1 cells. How it is done:
as §2

The target in a further assay is human serum Albumin (human, UniProt P02768 25-609). The assay is described as follows: non-specific binding ELISA, antigen coated at 2 ug/mL. How it is done:
Non-specific binding ELISA was performed in 96-well high binding plates (Nunc-Immuno Plate, Thermo Scientific). The plate was coated with various antigens (as listed in the left column of Table 11) at 2 μg/mL overnight at 4° C. After blocking with 2% BSA-PBS, 10 μg/ml antibodies were added to the plate and incubated for 2 hours. […] The HRP signal was detected by adding TMB peroxidase substrate and the reaction was stopped after 12 minutes using 2M HCl. The absorbance at 450 nm was read using a microplate reader (Molecular Device). All incubation steps were performed at room temperature. The plate was washed with PBST (0.05% Tween20-PBS) between steps.

In assay [6] the target is T5, human PD-L1 on CHO-K1 cells …. In words: FACS competition: antibody titrated against 5 ug/mL human PD-1 ECD mFc on human PD-L1 CHO-K1 cells. The protocol:
Human PD-L1 transfected W315-CHO-K1.hPro1.C11 cells were transferred into 96-well U-bottom plates at a density of 1×10⁵ cells/well. […] After washing with 1×PBS/1% BSA, the secondary antibody PE-labeled goat anti-mouse IgG was applied and incubated with cells at 4° C. for 1 hour. […] Human IgG1 and IgG4 isotype antibodies were used as negative control. The cells were then washed and resuspended in 1×PBS/1% BSA. MFI of the cells was measured by a flow cytometer (BD) and analyzed by FlowJo (version 7.6.1).

Assay [7] shares this target. The assay is described as follows: FACS competition on human PD-L1 CHO-K1 cells: titrated W3156 antibody mixed with 0.5 ug/mL biotinylated BMK6.hIgG4 (m4), SA-PE [A]. The protocol: (§3) Human PD-L1 expressing cells W315-CHO-K1.hPro1.C11 were transferred into 96-well U-bottom plates at a density of 1×10⁵ cells/well. […] Then the mixture was added to the cells in 96-well plates and incubated at 4° C. for 1 hour. After washing with 1×PBS/1% BSA, the secondary antibody SA-PE was applied and incubated with cells at 4° C. for 1 hour. The cells were then washed and resuspended in 1×PBS/1% BSA. MFI of the cells was measured by a flow cytometer and analyzed by FlowJo (version 7.6.1).

The target is the same in assay [8]. The assay is described as follows: FACS competition on human PD-L1 CHO-K1 cells: titrated W3156 antibody mixed with 0.5 ug/mL biotinylated BMK8.hIgG4 (m5), SA-PE [A]. How it is done: as §3

T5 sequence (Q9NZQ7 19-290): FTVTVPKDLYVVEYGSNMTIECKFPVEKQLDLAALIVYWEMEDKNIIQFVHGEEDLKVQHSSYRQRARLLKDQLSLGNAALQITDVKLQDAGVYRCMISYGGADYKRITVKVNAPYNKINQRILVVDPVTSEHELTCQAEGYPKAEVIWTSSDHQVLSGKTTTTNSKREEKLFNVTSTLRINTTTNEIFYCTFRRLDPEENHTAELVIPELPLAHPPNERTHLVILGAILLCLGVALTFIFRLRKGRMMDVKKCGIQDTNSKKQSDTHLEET
T4 sequence (Q9EP73 19-290): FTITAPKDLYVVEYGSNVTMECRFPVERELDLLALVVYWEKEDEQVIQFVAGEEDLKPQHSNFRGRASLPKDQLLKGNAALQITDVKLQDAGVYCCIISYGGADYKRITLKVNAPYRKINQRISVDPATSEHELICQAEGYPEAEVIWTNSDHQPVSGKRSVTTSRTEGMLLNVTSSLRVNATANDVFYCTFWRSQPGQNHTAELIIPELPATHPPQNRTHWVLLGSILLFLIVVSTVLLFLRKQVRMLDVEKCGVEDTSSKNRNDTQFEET

B1: AP3R2-1A3-z12-hIgG1 (Fc fusion)
chain: EVQLVESGGGLVQPGGSLRLSCAASGHFSNLAVNWFRQAPGKERELVAGILWSGGSTFYADSVKGRFTISRGNAENMLYLQMNSLRAEDTAVYYCNTGTNWGQGTLVTVSS
notes: VHH-Fc (hIgG1) fusion of the humanized VHH; also called W3156-AP3R2-1A3-z12-hIgG1; W3156 antibody; not shown: Fc of human IgG1
Take B1: the binding result is listed as “no binding (tested: 66.7 nM)” in assay [1], “no binding (tested: 66.7 nM)” in assay [2], “no binding (tested: 66.7 nM)” in assay [3] and “no binding (tested: 10 µg/ml)” with human serum Albumin. In addition, the 50% effective concentration (EC50) in assay [4] came out at 1.24 nM; in assay [5], 0.458 nM. In assay [6], the IC50 stood at 0.871 nM. The “IC50 (read off the curve)” value in assay [7] and in assay [8] was ~3 nM each time.

Broadly, the EC50 is the concentration giving half of the maximal effect. Read a low EC50 as a more potent agent. One may read the IC50 as the point on the concentration scale where inhibition reaches its midpoint.

These data come from US20220403031A1 (WUXI BIOLOGICS IRELAND, published 2022).
